Holding throughout (test): holdup assay
Holding throughout (design): key: below the threshold = too weak to quantify, mostly under pKd 3.1 to 4

Experiment [1] deals with T1, APBA1_2, Q02410.
T1 sequence (Q02410 742-832, limits assumed, looked up): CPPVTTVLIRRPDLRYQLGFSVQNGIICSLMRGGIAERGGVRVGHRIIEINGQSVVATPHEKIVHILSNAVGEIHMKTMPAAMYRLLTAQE

Experiment [2] has as its target T2, APBA2_2, Q99767.
T2 sequence (Q99767 654-744, limits assumed, looked up): T1 sequence (Q02410 742-832, limits assumed, looked up) with R10K, R15K, P59A, H65Q, I66A, A70S, Y84F, A89G

Experiment [3] concerns the target T3, CARD11, Q9BXL7.
T3 sequence (Q9BXL7 662-765, limits assumed, looked up): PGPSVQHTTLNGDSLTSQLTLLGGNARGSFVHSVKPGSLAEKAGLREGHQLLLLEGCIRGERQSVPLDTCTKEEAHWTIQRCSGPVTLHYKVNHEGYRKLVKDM

The target in experiment [4] is T4, DFNB31_2, Q9P202.
T4 sequence (Q9P202 274-371, limits assumed, looked up): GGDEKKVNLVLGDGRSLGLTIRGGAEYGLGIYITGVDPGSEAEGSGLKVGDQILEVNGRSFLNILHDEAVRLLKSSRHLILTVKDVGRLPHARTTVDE

Experiment [5] concerns the target DLG4_2, P78352.
Experiment [6] addresses T5, FRMPD1, Q5SYB0.
T5 sequence (Q5SYB0 52-145, limits assumed, looked up): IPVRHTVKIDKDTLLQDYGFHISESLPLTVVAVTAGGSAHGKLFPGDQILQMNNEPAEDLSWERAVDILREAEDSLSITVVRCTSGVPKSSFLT

Experiment [7] deals with FRMPD2_1, Q68DX3.
Experiment [8] concerns the target IL16_1, Q14005.
In experiment [9] the target is Inadl_3, Q8NI35.
In experiment [10] the target is LAP2, Q96RT1.
The target in experiment [11] is LIMK2, P53671.
Experiment [12] addresses LNX1_3, Q8TBB1.
The target in experiment [13] is T6, LNX2_3, Q8N448.
T6 sequence (Q8N448 463-564, limits assumed, looked up): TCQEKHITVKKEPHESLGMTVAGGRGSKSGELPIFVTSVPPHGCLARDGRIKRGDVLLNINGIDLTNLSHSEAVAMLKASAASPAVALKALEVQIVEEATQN

The target in experiment [14] is T7, MPDZ_10, O75970.
T7 sequence (O75970 1624-1722, limits assumed, looked up): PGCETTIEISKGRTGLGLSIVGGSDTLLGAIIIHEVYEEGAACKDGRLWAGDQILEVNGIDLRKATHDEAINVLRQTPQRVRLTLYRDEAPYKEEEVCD

For experiment [15], the target named is T8, MPP6, Q9NZW5.
T8 sequence (Q9NZW5 125-219, limits assumed, looked up): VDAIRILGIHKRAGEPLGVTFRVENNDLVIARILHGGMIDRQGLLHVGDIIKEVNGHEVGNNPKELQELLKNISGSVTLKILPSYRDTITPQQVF

Experiment [16] concerns the target T9, MPP7, Q5T2T1.
T9 sequence (Q5T2T1 134-230, limits assumed, looked up): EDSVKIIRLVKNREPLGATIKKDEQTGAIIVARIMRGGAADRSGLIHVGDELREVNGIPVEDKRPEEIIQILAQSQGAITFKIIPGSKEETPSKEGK

In experiment [17] the target is T10, NHERF3_3, Q5T2W1.
T10 sequence (Q5T2W1 238-333, limits assumed, looked up): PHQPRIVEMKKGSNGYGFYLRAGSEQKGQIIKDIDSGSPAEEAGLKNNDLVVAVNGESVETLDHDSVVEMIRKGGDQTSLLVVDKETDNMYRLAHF

Experiment [18] deals with T11, NHERF3_4, Q5T2W1.
T11 sequence (Q5T2W1 373-468, limits assumed, looked up): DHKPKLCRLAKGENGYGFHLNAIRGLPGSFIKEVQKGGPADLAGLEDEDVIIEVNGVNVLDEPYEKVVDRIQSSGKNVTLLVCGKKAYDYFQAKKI

Experiment [19] concerns the target NHERF4_2, Q86UT5.
Experiment [20] has as its target NHERF4_4, Q86UT5.
The target of experiment [21] is T12, PDZD2_2, O15018.
T12 sequence (O15018 329-429, limits assumed, looked up): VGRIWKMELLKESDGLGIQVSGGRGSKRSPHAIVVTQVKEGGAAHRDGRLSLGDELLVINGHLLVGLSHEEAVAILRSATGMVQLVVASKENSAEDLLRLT

Experiment [22] deals with T13, SHANK1, Q9Y566.
T13 sequence (Q9Y566 658-767, limits assumed, looked up): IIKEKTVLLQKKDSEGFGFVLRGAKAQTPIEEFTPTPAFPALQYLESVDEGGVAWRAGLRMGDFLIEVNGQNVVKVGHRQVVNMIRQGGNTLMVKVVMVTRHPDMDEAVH

The target of experiment [23] is T14, TX1BP3, O14907.
T14 sequence (O14907 10-122, limits assumed, looked up): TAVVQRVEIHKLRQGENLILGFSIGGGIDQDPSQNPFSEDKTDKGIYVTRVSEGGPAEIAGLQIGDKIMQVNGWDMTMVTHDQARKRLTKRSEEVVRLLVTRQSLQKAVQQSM

The mark [24] stands for this setting: plain residues with an end cap or a label only (N-terminal biotin on a linker: ahx).
[25] abbreviates: plain residues with an end cap or a label only (N-terminal biotin on a linker: ttds).

Changes are numbered by the printed parent chain.

One may read the pKd as the negative decadic logarithm of the Kd, by convention in mol/L.

Sequence of LIMK2, P53671 (P53671 143-248): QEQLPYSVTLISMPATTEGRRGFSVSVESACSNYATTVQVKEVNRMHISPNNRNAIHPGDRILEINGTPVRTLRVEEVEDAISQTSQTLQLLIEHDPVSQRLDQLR
Sequence of IL16_1, Q14005 (Q14005 210-306): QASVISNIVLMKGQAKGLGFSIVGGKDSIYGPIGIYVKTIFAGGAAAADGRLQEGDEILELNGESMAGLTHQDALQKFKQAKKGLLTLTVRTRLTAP
Sequence of FRMPD2_1, Q68DX3 (Q68DX3 770-861): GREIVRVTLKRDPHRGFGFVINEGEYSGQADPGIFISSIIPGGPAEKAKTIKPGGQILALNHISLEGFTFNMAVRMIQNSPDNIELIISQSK
Sequence of DLG4_2, P78352 (P78352 155-259): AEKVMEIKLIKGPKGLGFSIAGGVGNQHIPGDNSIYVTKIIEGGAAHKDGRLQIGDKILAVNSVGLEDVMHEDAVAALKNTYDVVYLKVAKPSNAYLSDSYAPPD
Sequence of NHERF4_4, Q86UT5 (Q86UT5 464-550): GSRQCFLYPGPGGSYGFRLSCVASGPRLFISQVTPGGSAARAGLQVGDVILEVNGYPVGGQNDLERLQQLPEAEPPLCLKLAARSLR
Sequence of LNX1_3, Q8TBB1 (Q8TBB1 500-596): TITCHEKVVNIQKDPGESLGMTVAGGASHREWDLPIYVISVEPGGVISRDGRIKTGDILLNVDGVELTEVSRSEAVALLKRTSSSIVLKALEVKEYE
Sequence of LAP2, Q96RT1 (Q96RT1 other isoform, or with tags, fused parts or gaps): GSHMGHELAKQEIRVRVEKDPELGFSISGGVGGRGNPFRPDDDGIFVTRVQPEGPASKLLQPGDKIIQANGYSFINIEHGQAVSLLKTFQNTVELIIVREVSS
Sequence of NHERF4_2, Q86UT5 (Q86UT5 220-308): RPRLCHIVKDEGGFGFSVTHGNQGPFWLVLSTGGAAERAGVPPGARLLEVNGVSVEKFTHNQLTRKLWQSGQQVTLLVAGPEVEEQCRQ
Sequence of Inadl_3, Q8NI35 (Q8NI35 359-469): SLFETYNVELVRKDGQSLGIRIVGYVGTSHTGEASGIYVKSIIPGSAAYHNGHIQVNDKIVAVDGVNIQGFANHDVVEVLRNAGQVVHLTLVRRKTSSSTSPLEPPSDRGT

With ESLLLGPSNF [SHROOM4, Q9ULL8], the pKd result in [1] (setting [24]), in experiment [2] (setting [24]), in [3] (setting [24]), in experiment [4] (setting [24]), in experiment [5] (setting [24]) and in [6] (setting [24]) was “below the threshold” throughout. Besides, the pKd entry in experiment [7] (setting [24]) was “below the threshold”; in experiment [8] (setting [24]) it was “below the threshold”; in [9] (setting [24]), 3.59; in experiment [10] (setting [24]) it was “below the threshold”; in experiment [11] (setting [24]), “below the threshold”; in experiment [12] (setting [24]) it was “below the threshold”. The pKd entry in experiment [13] (setting [24]), in experiment [14] (setting [24]), in [15] (setting [24]), in experiment [16] (setting [24]), in [17] (setting [24]) and in experiment [18] (setting [24]) was “below the threshold” in each case. In addition, the pKd entry in experiment [19] (setting [24]) is “below the threshold”; in [20] (setting [24]), “below the threshold”; in experiment [21] (setting [24]), “below the threshold”; in experiment [22] (setting [24]), 3.53; in experiment [23] (setting [24]), “below the threshold”.

In the case of RHTTSTETAV [HPV30-E6, P36809], the pKd in experiment [1] (setting [25]) was 4.23; in experiment [2] (setting [25]), “below the threshold”; in [3] (setting [25]) it was “below the threshold”; in experiment [4] (setting [25]), “below the threshold”; in experiment [5] (setting [25]) it was 5.45; in experiment [6] (setting [25]) it was “below the threshold”. Moreover, the pKd was 4.14 in [7] (setting [25]); 4.08 in [8] (setting [25]); 3.77 in experiment [9] (setting [25]); 4.46 in experiment [10] (setting [25]); 3.85 in [11] (setting [25]); “below the threshold” in [12] (setting [25]). Moreover, the pKd entry in experiment [13] (setting [25]), in [14] (setting [25]), in [15] (setting [25]), in experiment [16] (setting [25]), in [17] (setting [25]) and in experiment [18] (setting [25]) was “below the threshold” throughout. Moreover, the pKd entry in [19] (setting [25]) is “below the threshold”; in experiment [20] (setting [25]), “below the threshold”; in experiment [21] (setting [25]), 4.42; in experiment [22] (setting [25]), 3.73; in [23] (setting [25]) it was 4.65.

As for KKYVDAETSL [SLC4A7, Q9Y6M7], the pKd is 3.73 in [1] (setting [25]); “below the threshold” in experiment [2] (setting [25]); “below the threshold” in experiment [3] (setting [25]); 3.5 in experiment [4] (setting [25]); “below the threshold” in experiment [5] (setting [25]); “below the threshold” in experiment [6] (setting [25]). Moreover, the pKd entry in experiment [7] (setting [25]), in experiment [8] (setting [25]), in experiment [9] (setting [25]), in [10] (setting [25]), in [11] (setting [25]) and in experiment [12] (setting [25]) was “below the threshold” in each case. Also, the pKd entry in experiment [13] (setting [25]), in experiment [14] (setting [25]), in experiment [15] (setting [25]), in experiment [16] (setting [25]), in [17] (setting [25]) and in experiment [18] (setting [25]) was “below the threshold” each time. In addition, the pKd result in experiment [19] (setting [25]) was “below the threshold”; in experiment [20] (setting [25]) it was “below the threshold”; in [21] (setting [25]), 4.06; in experiment [22] (setting [25]), 4.67; in experiment [23] (setting [25]), 3.82.

For DKDPHSETAL [TMIGD1, Q6UXZ0], the pKd in experiment [1] (setting [25]) was 3.65; in experiment [2] (setting [25]), “below the threshold”; in [3] (setting [25]) it was “below the threshold”; in experiment [4] (setting [25]), “below the threshold”; in [5] (setting [25]), 3.78; in experiment [6] (setting [25]) it was “below the threshold”. Also, the pKd entry is “below the threshold” in experiment [7] (setting [25]); “below the threshold” in experiment [8] (setting [25]); “below the threshold” in experiment [9] (setting [25]); 3.66 in experiment [10] (setting [25]); “below the threshold” in experiment [11] (setting [25]); “below the threshold” in experiment [12] (setting [25]). Besides, the pKd entry is “below the threshold” in experiment [13] (setting [25]); “below the threshold” in experiment [14] (setting [25]); “below the threshold” in [15] (setting [25]); “below the threshold” in experiment [16] (setting [25]); “below the threshold” in [17] (setting [25]); 3.52 in experiment [18] (setting [25]). Besides, the pKd entry in experiment [19] (setting [25]) was “below the threshold”; in experiment [20] (setting [25]), “below the threshold”; in [21] (setting [25]), 3.73; in experiment [22] (setting [25]), 4.42; in experiment [23] (setting [25]) it was 4.03.

For the origin of these results see paper PMC9482650, “Quantitative fragmentomics allow affinity mapping of interactomes” (Nature Communications, 2022).
